B1: rFluA-20 heavy chain mutant Y34A (antibody, V domains shown)
VH: QVQLQESGPGLVKPSETLSLTCSVSGVSVTSDIAYWTWIRQPPGKGLEWIGYIFYNGDTNYNPSLKSRVTMSIDTSKNEFSLRLTSVTAADTAVYFCARGTEDLGYCSSGSCPNHWGQGTLVTVSS
VL: DIQMTQSPSSLSASIGDRVTITCRPSQNIRSFLNWFQHKPGKAPKLLIYAASNLQSGVPSRFSGSGSGTEFTLTIRSLQPEDFATYYCQQSYNTPPTFGQGTKVEIK
B2: rFluA-20 heavy chain mutant E97A (antibody, V domains shown)
VH: QVQLQESGPGLVKPSETLSLTCSVSGVSVTSDIYYWTWIRQPPGKGLEWIGYIFYNGDTNYNPSLKSRVTMSIDTSKNEFSLRLTSVTAADTAVYFCARGTADLGYCSSGSCPNHWGQGTLVTVSS
VL: DIQMTQSPSSLSASIGDRVTITCRPSQNIRSFLNWFQHKPGKAPKLLIYAASNLQSGVPSRFSGSGSGTEFTLTIRSLQPEDFATYYCQQSYNTPPTFGQGTKVEIK
B3: rFluA-20 heavy chain mutant T96A (antibody, V domains shown)
VH: QVQLQESGPGLVKPSETLSLTCSVSGVSVTSDIYYWTWIRQPPGKGLEWIGYIFYNGDTNYNPSLKSRVTMSIDTSKNEFSLRLTSVTAADTAVYFCARGAEDLGYCSSGSCPNHWGQGTLVTVSS
VL: DIQMTQSPSSLSASIGDRVTITCRPSQNIRSFLNWFQHKPGKAPKLLIYAASNLQSGVPSRFSGSGSGTEFTLTIRSLQPEDFATYYCQQSYNTPPTFGQGTKVEIK

Assays:
[1] = molecular target: HA of A/Solomon Islands/03/2006 (H1N1) (influenza A virus (H1N1))
[2] = molecular target: HA of A/Texas/36/1991 (H1N1) (influenza A virus (H1N1))
[3] = molecular target: HA of A/Texas/50/2012 (H3N2) (influenza A virus (H3N2))

Binder | EC50 [1] | EC50 [2] | EC50 [3]
B1 | 0.04 µg/mL | 0.05 µg/mL | 0.16 µg/mL
B2 | 0.07 µg/mL | 0.05 µg/mL | 0.18 µg/mL
B3 | 0.03 µg/mL | 0.04 µg/mL | 0.07 µg/mL
